This experiment deals with T1, Bovine plasma fibronectin (bovine, UniProt P07589 33-2478).
T1 construct: fibronectin, bovine, from plasma; about 0.5 MDa, two similar subunits attached through disulfide linkages; Adsorbed unmodified on a gold surface from 20 ug/mL in PBS; source: bought: Thermo Fisher Scientific
The experiment is described as follows: dynamic single-molecule force spectroscopy (AFM); fibronectin adsorbed on a gold surface; integrin or proteoglycan tethered by PEG to the AFM tip; PBS; trigger force 500 pN, no dwell; retraction speed varied; Bell-Evans fit of rupture force against ln(loading rate), fm = 10^7 s^-1 assumed. The conditions noted are these: both partners purified.

The values below come from publication PMC6712418, “Distinct Binding Interactions of α5β1-Integrin and Proteoglycans with Fibronectin” (Biophysical Journal, 2019).

T1 sequence (P07589 33-2478): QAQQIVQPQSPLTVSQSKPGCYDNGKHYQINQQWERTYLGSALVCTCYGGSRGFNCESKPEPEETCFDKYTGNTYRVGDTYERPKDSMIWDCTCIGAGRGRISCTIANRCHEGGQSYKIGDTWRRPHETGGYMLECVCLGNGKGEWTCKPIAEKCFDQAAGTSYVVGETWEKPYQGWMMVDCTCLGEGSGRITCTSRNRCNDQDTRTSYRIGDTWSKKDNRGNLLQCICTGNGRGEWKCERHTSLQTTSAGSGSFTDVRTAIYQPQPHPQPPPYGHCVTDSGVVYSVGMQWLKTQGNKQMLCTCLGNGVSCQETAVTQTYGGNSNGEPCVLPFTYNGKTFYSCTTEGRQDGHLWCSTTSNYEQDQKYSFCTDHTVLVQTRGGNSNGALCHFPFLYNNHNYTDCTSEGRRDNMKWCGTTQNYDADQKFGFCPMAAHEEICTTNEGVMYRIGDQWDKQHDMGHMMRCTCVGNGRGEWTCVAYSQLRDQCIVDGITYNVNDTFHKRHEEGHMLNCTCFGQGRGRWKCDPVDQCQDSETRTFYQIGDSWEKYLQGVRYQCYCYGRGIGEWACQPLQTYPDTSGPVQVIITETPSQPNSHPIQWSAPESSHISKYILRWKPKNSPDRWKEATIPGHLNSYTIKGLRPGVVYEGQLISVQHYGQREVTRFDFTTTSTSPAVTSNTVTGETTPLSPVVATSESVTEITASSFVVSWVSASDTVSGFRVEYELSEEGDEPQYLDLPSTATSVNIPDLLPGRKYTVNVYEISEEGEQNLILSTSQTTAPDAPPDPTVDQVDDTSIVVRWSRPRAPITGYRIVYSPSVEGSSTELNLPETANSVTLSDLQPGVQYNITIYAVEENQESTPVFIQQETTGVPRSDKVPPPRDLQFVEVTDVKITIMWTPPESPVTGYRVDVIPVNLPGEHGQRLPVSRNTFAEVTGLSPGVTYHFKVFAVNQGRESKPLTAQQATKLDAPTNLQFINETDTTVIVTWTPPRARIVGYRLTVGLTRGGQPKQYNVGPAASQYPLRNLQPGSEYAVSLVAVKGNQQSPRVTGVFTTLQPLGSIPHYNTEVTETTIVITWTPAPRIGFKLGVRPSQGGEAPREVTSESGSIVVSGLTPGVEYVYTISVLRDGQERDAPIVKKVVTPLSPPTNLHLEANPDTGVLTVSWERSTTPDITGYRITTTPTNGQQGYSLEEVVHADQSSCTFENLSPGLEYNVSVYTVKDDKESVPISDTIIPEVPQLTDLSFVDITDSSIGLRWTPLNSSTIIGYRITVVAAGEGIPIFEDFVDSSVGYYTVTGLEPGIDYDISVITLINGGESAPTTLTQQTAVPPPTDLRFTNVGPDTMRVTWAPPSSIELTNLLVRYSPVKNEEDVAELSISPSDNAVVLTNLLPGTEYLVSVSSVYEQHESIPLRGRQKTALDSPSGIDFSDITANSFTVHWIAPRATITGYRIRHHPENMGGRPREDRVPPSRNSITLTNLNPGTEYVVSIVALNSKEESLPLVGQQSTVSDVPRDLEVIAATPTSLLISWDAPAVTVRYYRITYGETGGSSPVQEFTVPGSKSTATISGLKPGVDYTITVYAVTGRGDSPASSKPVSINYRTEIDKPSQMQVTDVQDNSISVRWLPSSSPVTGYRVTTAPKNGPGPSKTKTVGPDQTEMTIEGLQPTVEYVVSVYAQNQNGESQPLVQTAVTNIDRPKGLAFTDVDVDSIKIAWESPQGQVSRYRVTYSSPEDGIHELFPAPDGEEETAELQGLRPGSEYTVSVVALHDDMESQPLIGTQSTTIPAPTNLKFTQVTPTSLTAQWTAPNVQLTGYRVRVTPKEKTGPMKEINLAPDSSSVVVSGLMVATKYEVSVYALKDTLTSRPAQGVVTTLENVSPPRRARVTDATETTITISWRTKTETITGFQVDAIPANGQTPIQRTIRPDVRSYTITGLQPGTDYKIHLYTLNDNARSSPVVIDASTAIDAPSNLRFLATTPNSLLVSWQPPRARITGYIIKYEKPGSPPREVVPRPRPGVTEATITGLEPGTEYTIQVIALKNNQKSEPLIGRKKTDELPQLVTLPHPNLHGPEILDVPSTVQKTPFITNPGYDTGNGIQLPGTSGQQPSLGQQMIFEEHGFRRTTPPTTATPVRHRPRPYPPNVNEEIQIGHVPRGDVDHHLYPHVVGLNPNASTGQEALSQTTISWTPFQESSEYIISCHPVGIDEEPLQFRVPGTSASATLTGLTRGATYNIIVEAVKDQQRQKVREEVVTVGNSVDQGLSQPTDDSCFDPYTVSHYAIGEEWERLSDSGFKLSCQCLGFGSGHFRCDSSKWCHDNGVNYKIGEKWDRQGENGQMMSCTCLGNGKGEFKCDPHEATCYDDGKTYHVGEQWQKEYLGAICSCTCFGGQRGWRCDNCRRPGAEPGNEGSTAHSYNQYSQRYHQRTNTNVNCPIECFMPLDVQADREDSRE

B1: Recombinant human decorin (natural protein, UniProt P07585 31-359, looked up)
chain: DEASGIGPEVPDDRDFEPSLGPVCPFRCQCHLRVVQCSDLGLDKVPKDLPPDTTLLDLQNNKITEIKDGDFKNLKNLHALILVNNKISKVSPGAFTPLVKLERLYLSKNQLKELPEKMPKTLQELRAHENEITKVRKVTFNGLNQMIVIELGTNPLKSSGIENGAFQGMKKLSYIRIADTNITSIPQGLPPSLTELHLDGNKISRVDAASLKGLNNLAKLGLSFNSISAVDNGSLANTPHLRELHLDNNKLTRVPGGLAEHKYIQVVYLHNNNISVVGSSDFCPPGHNTKKASYSGVSLFSNPVQYWEIQPSTFRCVYVRSAIQLGNYK
modifications: a single chondroitin or dermatan sulfate GAG chain attached at the N-terminus (proteoglycan); cysteines bound to the maleimide of an NHS-PEG-Mal linker on the AFM tip
notes: decorin, human, recombinant; 42-kDa core protein; No catalogue number printed; The GAG chain is told of decorin in general; source: bought: R&D Systems
Consider B1, for which the koff was determined as 40 ± 4 s⁻¹.

B2: Recombinant human syndecan-4 (natural protein, UniProt P31431 19-145, looked up)
chain: ESIRETEVIDPQDLLEGRYFSGALPDDEDVVGPGQESDDFELSGSGDLDDLEDSMIGPEVVHPLVPLDNHIPERAGSGSQVPTEPKKLEENEVIPKRISPVEESEDVSNKVSMSSTVQGSNIFERTE
modifications: heparan sulfate glycosaminoglycan chains (proteoglycan); cysteines bound to the maleimide of an NHS-PEG-Mal linker on the AFM tip
notes: syndecan-4, human, recombinant; No catalogue number printed; The R&D Systems product is probably the extracellular domain (surmised); also called SDC4; source: bought: R&D Systems
For B2, the koff was found to be 2.4 ± 0.4 s⁻¹.
